# B1: mRAS peptide VV_D (RAS G12D), VVGADGVGK (peptide)
# peptide: VVGADGVGK
# notes: 9-mer mutant RAS short peptide; also called D-9
# B2: mRAS peptide VV_R (RAS G12R), VVGARGVGK (peptide)
# peptide: VVGARGVGK
# notes: 9-mer mutant RAS short peptide; also called R-9
# B3: mRAS peptide VV_C (RAS G12C), VVGACGVGK (peptide)
# peptide: VVGACGVGK
# notes: 9-mer mutant RAS short peptide; also called C-9
# B4: mRAS peptide VVV_D (RAS G12D), VVVGADGVGK (peptide)
# peptide: VVVGADGVGK
# notes: 10-mer mutant RAS short peptide; also called D-10
# B5: mRAS peptide VVV_V (RAS G12V), VVVGAVGVGK (peptide)
# peptide: VVVGAVGVGK
# notes: 10-mer mutant RAS short peptide; also called V-10
# B6: mRAS peptide VVV_R (RAS G12R), VVVGARGVGK (peptide)
# peptide: VVVGARGVGK
# notes: 10-mer mutant RAS short peptide; also called R-10
# B7: mRAS peptide GA_R (RAS G12R), GARGVGKSAL (peptide)
# peptide: GARGVGKSAL
# notes: 10-mer mutant RAS short peptide; also called R-10 (B*07:02 panel)
# Columns and labels:
# [1] = molecular target: T1, HLA-A*11:01 expressed on monoallelic K562 RAS TMG cells (human); test: HLA class I immunoprecipitation, peptide elution and tandem MS/MS from monoallelic K562 RAS TMG cells (FIG. 8E)
# T1 construct: also called K562-A*11:01
# HLA-A*11:01 = molecular target: T2, HLA-A*11:01 (human); test: peptide-MHC binding, competitive fluorescence polarization assay
# T2 construct: the construct is not described
# [2] = molecular target: T3, HLA-A*03:01 expressed on monoallelic K562 RAS TMG cells (human); test: HLA class I immunoprecipitation, peptide elution and tandem MS/MS from monoallelic K562 RAS TMG cells (FIG. 8D)
# T3 construct: also called K562-A*03:01
# [3] = molecular target: T1, HLA-A*11:01 expressed on monoallelic …; test: HLA class I immunoprecipitation, peptide elution and tandem MS/MS from monoallelic K562 RAS TMG cells (FIG. 8I)
# [4] = molecular target: T1, HLA-A*11:01 expressed on monoallelic …; test: HLA class I immunoprecipitation, peptide elution and tandem MS/MS from monoallelic K562 RAS TMG cells (FIG. 8F)
# [5] = molecular target: T3, HLA-A*03:01 expressed on monoallelic …; test: HLA class I immunoprecipitation, peptide elution and tandem MS/MS from monoallelic K562 RAS TMG cells (FIG. 8A)
# [6] = molecular target: T1, HLA-A*11:01 expressed on monoallelic …; test: HLA class I immunoprecipitation, peptide elution and tandem MS/MS from monoallelic K562 RAS TMG cells (FIG. 8G)
# [7] = molecular target: T3, HLA-A*03:01 expressed on monoallelic …; test: HLA class I immunoprecipitation, peptide elution and tandem MS/MS from monoallelic K562 RAS TMG cells (FIG. 8C)
# HLA-A*03:01 = molecular target: T4, HLA-A*03:01 (human); test: peptide-MHC binding, competitive fluorescence polarization assay
# T4 construct: the construct is not described
# [8] = molecular target: T5, HLA-B*07:02 expressed on monoallelic K562 RAS TMG cells (human); test: HLA class I immunoprecipitation, peptide elution and tandem MS/MS from monoallelic K562 RAS TMG cells (FIG. 8J)
# T5 construct: also called K562-B*07:02
# HLA-B*07:02 = molecular target: T6, HLA-B*07:02 (human); test: peptide-MHC binding, competitive fluorescence polarization assay
# T6 construct: the construct is not described
binder,measurement,setting,value
B1,binding result,[1],binds
same,binding result,HLA-A*11:01,binds
B2,binding result,HLA-A*11:01,binds
same,binding result,[2],binds
same,binding result,[3],binds
B3,binding result,HLA-A*11:01,binds
B4,binding result,[4],binds
same,binding result,HLA-A*11:01,binds
same,binding result,[5],binds
B5,binding result,[6],binds
same,binding result,[7],binds
same,binding result,HLA-A*11:01,binds
same,binding result,HLA-A*03:01,binds
B6,binding result,HLA-A*11:01,binds
same,binding result,HLA-A*03:01,binds
B7,binding result,[8],binds
same,binding result,HLA-B*07:02,binds

# — US20220088190A1 (University of Pennsylvania, published 2022)
